Results from patent US20240324599A1, “PESTICIDAL ENZYMES FOR USE ON NEMATODES, INSECTS, AND MOLLUSKS” (priority 2023, published 2024).

Assays:
Type in all cases: in vivo
[1] = tested on: Diamondback moth (Plutella xylostella); assay: Diet-surface overlay (DSO) bioassay; details: Table 41, individuals of n = 16 after 7 days
Description: (§1) Diet-surface overlay bioassays are conducted with artificial diet mixes without antibiotics in 1.5 cm^2 cell bioassay trays(s). Artificial diets are commercially available from Southland Products Inc. Diets were prepared by dispersing 0.5 mL of molten diet to each 1.5 cm^2 cell. After solidification, 0.1 mL enzyme treatments were dispersed on top of diet in each cell and the tray was gently rocked in an orbital shaker to spread the liquid uniformly over the diet surface. Trays were placed under clean airflow until the surface of each cell was uniformly dried. One or two 16-cell sections were used per treatment (the number in larvae treated was 16 or 32).
(§2) One healthy first instar larva was placed into each treatment cell, each 16-cell section was covered with a re-sealable lid and incubated at 27° C. and light-dark period of 16:8 hrs. After 7 days, and according to the species, the number of individuals in the following developmental categories was recorded.
(§3) Diamondback moth (Plutella xylostella): Dead Larva (lack of movement), Larva Stage I (≤50% relative size), Larva Stage II (100% relative size, full size), Early Pupa (light green color), Late Pupa (light-dark brown color), and Adult.
(§4) Negative/untreated controls were treated with filtered water and positive controls were treated with lethal doses of Bacillus thuringiensis subsp. Kurstaki (Btk) spores at 1000 ppm.

[2] = tested on: Btk resistant Diamondback moth; assay: Diet-surface overlay (DSO) bioassay
Description: as §1, §2, §3, §4
However, both neutral proteases reduced the number of individuals reaching adult stage.

[3] = tested on: Black gloss snails (Zonitoides nitidus); assay: Antifeedant and molluscicide bioassay (artificial diet): consumption, survival, weight gain; details: Table 63; n = 12, 7 days; control diet 2.50
Description: Two-week old garden snails (Cornu aspersum) and full-size black gloss snails (Zonitoides nitidus) were maintained in a semi-darkened tank at 68-70° F. at high humidity, provided with a wet sponge in a petri dish. Snails were transferred to fresh tank every 2-3 days, and they were feed ad libitum with cucumber slices supplemented with calcium carbonate tablets. Individuals were reared in the laboratory for at least a week to fully acclimate to laboratory conditions prior to testing. The individuals ranged between 3 weeks to 2 months old at the time of bioassay.
Filter-sterilized recombinant enzymes including proteases and lipases were prepared as indicated in Example 25. Corresponding controls (e.g., buffer, fermentation of non-recombinant strain, water) were be prepared accordingly. […]
12 snails were randomly assigned to each treatment, labeled with permanent marker on the top of the shell for identification, and their weight (mg) was recorded before treatment. […] At the time of treatment replacement, treatment consumption, weight, and mortality were recorded.
Alkaline Protease and Keratinase and Lipases from Pseudomonas fluorescens (Pf,), were prepared as described above and their antifeedant and molluscicidal effects were tested. […] The units (U) of enzyme activity was determined as the amount of enzyme required to breakdown 1 μM of substrate per minute. […]

[4] = tested on: Fall armyworm (Spodoptera frugiperda); assay: Diet-surface overlay (DSO) bioassay
Description: as §1, §2, §4

[5] = Table 42, Btk resistant, n = 32, doses as E69, water 0
[6] = Table 43, n = 32, Keratinase 260 U/mL diet, water 0

B1: Keratinase: protease resuspended in water at 0.25 g/mL (protein, listed as Bacillus licheniformis)
chain: MMRKKSFWLGMLTAFMLVFTMAFSDSASAAQPAKNVEKDYIVGFKSGVKTASVKKDIIKESGGKVDKQFRIINAAKAKLDKEALKEVKNDPDVAYVEEDHVAHALAQTVPYGIPLIKADKVQAQGFKGANVKVAVLDTGIQASHPDLNVVGGASFVAGEAYNTDGNGHGTHVAGTVAALDNTTGVLGVAPSVSLYAVKVLNSSGSGSYSGIVSGIEWATTNGMDVINMSLGGASGSTAMKQAVDNAYARGVVVVAAAGNSGSSGNTNTIGYPAKYDSVIAVGAVDSNSNRASFSSVGAELEVMAPGAGVYSTYPTNTYATLNGTSMVSPHVAGAAALILSKHPNLSASQVRNRLSSTATYLGSSFYYGKGLINVEAAAQ
modifications: Protease _ keratinase
notes: protease resuspended in water at 0.25 g/mL
- Dead Larva ([1]; U/mL diet: SEQ 127 0.206, Acid 2.5, Alkaline 190, Neutral 20, Keratinase 26, Btk spores 1000 ppm, water 0): 1
- Larva Stage I ([1]; doses as E63, water 0): 0
- Larva Stage II ([1]; doses as E63, water 0): 0
- Early Pupa ([1]; doses as E63, water 3): 11
- Late Pupa ([1]; doses as E63, water 3): 4
- Adult ([1]; doses as E63, water 10): 0
- Dead Larva ([2]; Table 42, Btk resistant strain, individuals of n = 32 after 7 days, U/mL diet: SEQ 127 2, Neutral 200, Keratinase 260, water 1): 19
- Larva Stage I [2, 5]: 11
- Larva Stage II [2, 5]: 2
- Early Pupa ([2]; Table 42, Btk resistant, n = 32, doses as E69, water 1): 0
- Adult ([2]; Table 42, Btk resistant, n = 32, doses as E69, water 8): 0
- Late Pupa ([2]; Table 42, Btk resistant, n = 32, doses as E69, water 22): 0
- mortality ([2]; text to Table 42, 10× higher protease activity rate): more than 50%
- effect on Btk resistant Diamondback moth larvae, in words ([2]; text to Tables 42, 45, 47): strong stunting of survival larvae
- Diet consumption [3]: 0.70 g
- Dead Larva ([4]; Table 43, individuals of n = 32 after 7 days, Keratinase 260 U/mL diet, water 2): 32
- Larva Stage I [4, 6]: 0
- Larva Stage II [4, 6]: 0
- Larva Stage III [4, 6]: 0
- Larva Stage IV ([4]; Table 43, n = 32, Keratinase 260 U/mL diet, water 30): 0
- effect on Fall armyworm larvae, in words ([4]; text to Tables 43, 46, 48, 50): lethal
